Assay results taken from the supplement of paper PMC9112550, “Optimization of the antimicrobial peptide Bac7 by deep mutational scanning” (BMC Biology, 2022).

Test system: Escherichia coli TOP10
Assay: shrunken log2 fold change of peptide-encoding DNA abundance (4.5 h post-induction vs induction); higher = less antimicrobial activity (less host growth inhibition)
Conditions: time post-induction: 4.5 h; library: site-saturation at positions 5, 18, 19, 20
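Also: peptides expressed intracellularly from a pBAD plasmid library in pooled LB shake-flask culture, induced with 0.3% L-arabinose, DNA abundance read by NGS, three biological replicates, DESeq2 with apeglm shrinkage.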

Sequence | shrunken log2 fold change
RRIRSRPPRLPRPRPRPDSPPRP | 0.242
RRIRFRPPRLPRPRPRPSNDPRP | -0.112
RRIRMRPPRLPRPRPRPLQQPRP | 2.85
RRIRPRPPRLPRPRPRPENDPRP | -0.0164
RRIRYRPPRLPRPRPRPLDHPRP | -0.119
RRIRTRPPRLPRPRPRPCNVPRP | -0.00968
RRIRNRPPRLPRPRPRPVYFPRP | -0.301
RRIRIRPPRLPRPRPRPLFCPRP | -0.517
RRIRMRPPRLPRPRPRPCYGPRP | -0.534
RRIRYRPPRLPRPRPRPQTLPRP | -0.088
RRIRWRPPRLPRPRPRPAISPRP | -0.00844
RRIRNRPPRLPRPRPRPIVGPRP | 0.003
RRIRIRPPRLPRPRPRPPKCPRP | -0.101
RRIRFRPPRLPRPRPRPYIKPRP | -1.28
RRIRRRPPRLPRPRPRPITYPRP | -0.0184
RRIRNRPPRLPRPRPRPMAIPRP | -0.00192
RRIRDRPPRLPRPRPRPLTEPRP | 0.236
RRIRKRPPRLPRPRPRPCKFPRP | 0.142
RRIRHRPPRLPRPRPRPDGMPRP | -0.444
RRIRERPPRLPRPRPRPDSQPRP | -0.0262
RRIRLRPPRLPRPRPRPMIRPRP | -0.154
RRIRVRPPRLPRPRPRPTKNPRP | -0.00729
RRIRWRPPRLPRPRPRPVQSPRP | 0.0186
RRIRWRPPRLPRPRPRPEDHPRP | 0.304
RRIRFRPPRLPRPRPRPDPEPRP | -0.0327

Sequence | shrunken log2 fold change
RRIRTRPPRLPRPRPRPLSLPRP | -0.613
RRIRERPPRLPRPRPRPRSNPRP | -0.0433
RRIRSRPPRLPRPRPRPDPVPRP | 0.377
RRIRERPPRLPRPRPRPPHIPRP | -0.366
RRIRQRPPRLPRPRPRPKQGPRP | 0.401
RRIRDRPPRLPRPRPRPQTKPRP | -0.115
RRIRQRPPRLPRPRPRPLYSPRP | -0.649
RRIRVRPPRLPRPRPRPHAIPRP | -0.0728
RRIRFRPPRLPRPRPRPRRQPRP | 0.108
RRIRDRPPRLPRPRPRPVIAPRP | 0.224
RRIRKRPPRLPRPRPRPGNTPRP | -0.0331
RRIRVRPPRLPRPRPRPTLDPRP | 0.125
RRIRVRPPRLPRPRPRPHDTPRP | -0.212
RRIRERPPRLPRPRPRPGRWPRP | 0.796
RRIRSRPPRLPRPRPRPGWPPRP | 0.692
RRIRMRPPRLPRPRPRPTIEPRP | 0.43
RRIRQRPPRLPRPRPRPGCPPRP | 0.414
RRIRQRPPRLPRPRPRPWLGPRP | -0.0417
RRIRHRPPRLPRPRPRPNERPRP | 0.0404
RRIRIRPPRLPRPRPRPMRYPRP | -0.176
RRIRDRPPRLPRPRPRPDTSPRP | -0.114
RRIRYRPPRLPRPRPRPRTTPRP | -0.011
RRIRPRPPRLPRPRPRPTAAPRP | 0.227
RRIRDRPPRLPRPRPRPGVRPRP | 0.502
RRIRCRPPRLPRPRPRPTFFPRP | 0.114

Sequence | shrunken log2 fold change
RRIRCRPPRLPRPRPRPMNSPRP | -0.141
RRIRHRPPRLPRPRPRPLQAPRP | -0.279
RRIRVRPPRLPRPRPRPEPFPRP | 0.0811
RRIRARPPRLPRPRPRPSSQPRP | 0.144
RRIRARPPRLPRPRPRPHFNPRP | 0.122
RRIRSRPPRLPRPRPRPHWPPRP | 0.341
RRIRLRPPRLPRPRPRPDAFPRP | 0.0575
RRIRLRPPRLPRPRPRPIPDPRP | 0.00718
RRIRDRPPRLPRPRPRPWTTPRP | -0.0204
RRIRLRPPRLPRPRPRPWVEPRP | -0.186
RRIRSRPPRLPRPRPRPITIPRP | -0.324
RRIRMRPPRLPRPRPRPDCKPRP | -0.0414
RRIRRRPPRLPRPRPRPMNAPRP | 0.15
RRIRKRPPRLPRPRPRPDIWPRP | 0.211
RRIRHRPPRLPRPRPRPIRLPRP | -0.0644
RRIRYRPPRLPRPRPRPYKGPRP | -0.721
RRIRPRPPRLPRPRPRPANDPRP | -0.155
RRIRIRPPRLPRPRPRPDHVPRP | -0.23
RRIRQRPPRLPRPRPRPLVTPRP | -0.122
RRIRARPPRLPRPRPRPTIFPRP | 0.377
RRIRHRPPRLPRPRPRPQLCPRP | 0.0716
RRIRRRPPRLPRPRPRPYGTPRP | -0.231
RRIRERPPRLPRPRPRPRMVPRP | -0.462
RRIRVRPPRLPRPRPRPFMFPRP | -0.433
RRIRDRPPRLPRPRPRPGQRPRP | 0.0563
